Data on 15 sequences can be found in the Immune Epitope Database (IEDB).

In test [1] the target is HLA-B*57:01. Nature of the test: IEDB peptide-MHC binding, purified MHC/competitive/radioactivity; filed as Kd, often an IC50 or EC50 that approximates it; ≥ and ≤ were set here for values at or beyond the usual limits of such assays.
Test [2] addresses HLA-B*58:01. Described as above.
In test [3] the target is HLA-B*45:06. Nature of the test: IEDB peptide-MHC binding, purified MHC/competitive/fluorescence; filed as Kd, often an IC50 or EC50 that approximates it; ≥ and ≤ were set here for values at or beyond the usual limits of such assays.
In test [4] the target is HLA-B*83:01. The test is described as above.
Test [5] has as its target HLA-B*15:42. Described as above.
In test [6] the target is HLA-B*46:01. Nature of the test: IEDB peptide-MHC binding, purified MHC/direct/fluorescence; filed as Kd, often an IC50 or EC50 that approximates it; ≥ and ≤ were set here for values at or beyond the usual limits of such assays.
The target of test [7] is HLA-B*40:01. The test is described as above.
Test [8] addresses HLA-A*69:01. The description is as above.
Test [9] deals with HLA-B*57:01. The test is described as above.
In test [10] the target is HLA-B*48:01. The description is as above. Conditions: source organism: Mycobacterium tuberculosis.
Test [11] has as its target HLA-B*08:01. The test is described as above.
Test [12] addresses HLA-A*11:01. Described as above.
Test [13] has as its target HLA-B*15:01. Described as above.
In test [14] the target is HLA-A*03:01. The test is described as above.
In test [15] the target is HLA-A*02:01. Described as above.
The target in test [16] is HLA-B*58:01. The test is described as above.
Test [17] concerns the target HLA-B*18:01. Described as above. Conditions: source organism: Mycobacterium tuberculosis.
Test [18] has as its target HLA-A*01:01. The description is as above.
Test [19] addresses HLA-B*15:17. The description is as above. Conditions: source organism: Mycobacterium tuberculosis.
Test [20] concerns the target HLA-B*51:01. The description is as above. Conditions: source organism: Mycobacterium tuberculosis.
The target of test [21] is HLA-A*31:01. The description is as above.
The target in test [22] is HLA-B*27:05. The description is as above.
The target of test [23] is HLA-A*32:01. Nature of the test: IEDB peptide-MHC binding, purified MHC/competitive/radioactivity; filed as Kd, often an IC50 or EC50 that approximates it; ≥ and ≤ were set here for values at or beyond the usual limits of such assays. Conditions: source organism: Dengue virus 2 Jamaica/1409/1983.
The target in test [24] is HLA-B*15:09. Nature of the test: IEDB peptide-MHC binding, purified MHC/direct/fluorescence; filed as Kd, often an IC50 or EC50 that approximates it; ≥ and ≤ were set here for values at or beyond the usual limits of such assays.
Test [25] has as its target HLA-B*44:02. The test is described as above.
Test [26] deals with HLA-B*07:02. The description is as above.
Test [27] addresses HLA-A*29:02. Described as above. Conditions: source organism: West Nile virus.
In test [28] the target is HLA-A*30:01. Nature of the test: IEDB peptide-MHC binding, purified MHC/competitive/radioactivity; filed as Kd, often an IC50 or EC50 that approximates it; ≥ and ≤ were set here for values at or beyond the usual limits of such assays. Conditions: source organism: Dengue virus 1 Brazil/97-11/1997.
The target in test [29] is HLA-A*68:02. The description is as above. Conditions: source organism: Dengue virus 1 Brazil/97-11/1997.
Test [30] has as its target HLA-A*26:01. Described as above. Conditions: source organism: Dengue virus 1 Brazil/97-11/1997.
Test [31] concerns the target HLA-A*01:01. Described as above. Conditions: source organism: Dengue virus 1 Brazil/97-11/1997.
The target in test [32] is HLA-A*26:01. Nature of the test: IEDB peptide-MHC binding, purified MHC/direct/fluorescence; filed as Kd, often an IC50 or EC50 that approximates it; ≥ and ≤ were set here for values at or beyond the usual limits of such assays. Conditions: source organism: Corynebacterium glutamicum.
Where [33] appears, read: source organism: Dengue virus 3 Martinique/1243/1999.
The mark [34] stands for this setting: source organism: Dengue virus 2 Jamaica/1409/1983.
Setting [35] is: source organism: Dengue virus 1 Singapore/S275/1990.
Where [36] appears, read: source organism: Mycobacterium tuberculosis C.
Where [37] appears, read: source organism: Mycobacterium tuberculosis.
Where [38] appears, read: source organism: West Nile virus.
The mark [39] stands for this setting: source organism: Dengue virus 1 Brazil/97-11/1997.
The mark [40] stands for this setting: source organism: Corynebacterium glutamicum ATCC 13032.
Where [41] appears, read: source organism: Corynebacterium glutamicum.
The mark [42] stands for this setting: source organism: Influenza A virus (A/camel/Mongolia/1982(H1N1)).

pKd: −log10 of the molar value.

What is called pKd is −log10 of the Kd, conventionally taken in molar units. For the sequence IASAIVLEFF, the negative-log Kd (pKd) in test [1] (setting [33]) is 6.05; in [2] (setting [33]), 7.68.
Consider KSIEDNPEI, for which the pKd in test [2] (setting [34]) is 8.26.
Consider NASDRMGMGT, for which the values for the pKd in test [1] (setting [35]) and in test [2] (setting [35]) were 6.19 and 5.29, respectively.
In the case of VASEGIKYTD, the pKd in test [1] (setting [33]) is 5.29; in test [2] (setting [33]) it was 6.47.
Regarding APRGFRAAF, the negative logarithm of the Kd (pKd) in test [3] (setting [36]) was ≤ 5.30; in test [4] (setting [36]), 7.42; in test [5] (setting [36]), ≤ 5.30; in test [6] (setting [37]), ≤ 4.70; in test [7] (setting [37]), ≤ 4.70; in [8] (setting [37]), ≤ 4.70. The pKd is ≤ 4.70 in test [9] (setting [37]); ≤ 4.70 in [10]; 7.00 in test [11] (source organism: Mycobacterium tuberculosis str. Haarlem); ≤ 4.70 in [12] (setting [37]); ≤ 4.70 in [13] (setting [37]); ≤ 4.70 in test [14] (setting [37]). The negative logarithm of the Kd (pKd) was ≤ 4.70 in [15] (setting [37]); ≤ 4.70 in test [16] (setting [37]); ≤ 4.70 in test [17]; ≤ 4.70 in test [18] (setting [37]); 5.26 in test [19]; ≤ 4.70 in [20]. For the same sequence, the pKd in test [21] (setting [37]) and in [22] (setting [37]) was ≤ 4.70 in each case.
As to TASILLWYAQ, the negative-log Kd (pKd) in test [1] (setting [34]) was 7.54; in test [2] (setting [34]) it was 6.00; in [23], ≤ 4.48.
Turning to GRGPIRFVL, the pKd in [24] (setting [38]), in test [6] (setting [38]), in [8] (setting [38]), in test [9] (setting [38]), in test [25] (setting [38]) and in test [12] (setting [38]) was ≤ 4.70 in each case. The pKd in test [26] (setting [38]), in test [13] (setting [38]), in [14] (setting [38]), in test [27], in test [15] (setting [38]) and in [16] (setting [38]) was ≤ 4.70 throughout. The pKd in test [18] (setting [38]) and in test [21] (setting [38]) was ≤ 4.70 each time.
For KVRKDIPQW, the negative logarithm of the Kd (pKd) is 7.45 in test [1] (setting [39]), 8.22 in [2] (setting [39]) and 6.60 in [28].
As for TTSGTYVSAI, the pKd was 6.75 in [1] (setting [39]), 7.69 in [29], 4.77 in test [30] and ≤ 4.15 in [31].
As to PTAGVLARW, the pKd in test [1] (setting [33]) was 7.53.
With AEHDPWWAV, the negative logarithm of the Kd (pKd) was ≤ 5.30 in test [3] (setting [40]); ≤ 5.30 in test [4] (setting [40]); ≤ 5.30 in test [5] (setting [40]); 7.26 in test [7] (setting [41]); ≤ 4.70 in test [8] (setting [41]); ≤ 4.70 in test [11] (setting [41]). Further, the pKd is ≤ 4.70 in test [12] (setting [41]); ≤ 4.70 in test [32]; 5.05 in test [26] (setting [41]); ≤ 4.70 in [13] (setting [41]); ≤ 4.70 in test [14] (setting [41]); ≤ 4.70 in test [15] (setting [41]). Moreover, the pKd in test [16] (setting [41]), in [18] (setting [41]), in test [21] (setting [41]) and in test [22] (setting [41]) was ≤ 4.70 in each case.
Take RAVHADMGYW: in [2] (setting [34]), the pKd was 9.63.
Consider GAVFQEEQGW, for which the pKd in test [2] (source organism: Dengue virus 4 Philippines/H241/1956) is 7.73.
With HIPEVCLKW, the negative-log Kd (pKd) in test [24] (source organism: Influenza A virus H3N2), in test [6] (setting [42]), in test [7] (setting [42]), in [8] (setting [42]), in test [11] (setting [42]) and in test [25] (setting [42]) was ≤ 4.70 each time. Further, the pKd in test [26] (setting [42]) is ≤ 4.70; in [13] (setting [42]), ≤ 4.70; in test [14] (setting [42]) it was ≤ 4.70; in test [15] (setting [42]), ≤ 4.70; in [16] (setting [42]), 6.92; in test [18] (setting [42]), ≤ 4.70. The pKd in [21] (setting [42]) and in test [22] (setting [42]) was ≤ 4.70 in each case.
Turning to STSLSMTCIA, in test [1] (setting [39]), the negative-log Kd (pKd) was 5.68.
